Assay results from paper PMC2175199 (The Journal of Cell Biology, 2000).

T1: XSA2 (Xenopus laevis (endogenous in egg …, UniProt Q9DGN0 1-1194))
T1 sequence: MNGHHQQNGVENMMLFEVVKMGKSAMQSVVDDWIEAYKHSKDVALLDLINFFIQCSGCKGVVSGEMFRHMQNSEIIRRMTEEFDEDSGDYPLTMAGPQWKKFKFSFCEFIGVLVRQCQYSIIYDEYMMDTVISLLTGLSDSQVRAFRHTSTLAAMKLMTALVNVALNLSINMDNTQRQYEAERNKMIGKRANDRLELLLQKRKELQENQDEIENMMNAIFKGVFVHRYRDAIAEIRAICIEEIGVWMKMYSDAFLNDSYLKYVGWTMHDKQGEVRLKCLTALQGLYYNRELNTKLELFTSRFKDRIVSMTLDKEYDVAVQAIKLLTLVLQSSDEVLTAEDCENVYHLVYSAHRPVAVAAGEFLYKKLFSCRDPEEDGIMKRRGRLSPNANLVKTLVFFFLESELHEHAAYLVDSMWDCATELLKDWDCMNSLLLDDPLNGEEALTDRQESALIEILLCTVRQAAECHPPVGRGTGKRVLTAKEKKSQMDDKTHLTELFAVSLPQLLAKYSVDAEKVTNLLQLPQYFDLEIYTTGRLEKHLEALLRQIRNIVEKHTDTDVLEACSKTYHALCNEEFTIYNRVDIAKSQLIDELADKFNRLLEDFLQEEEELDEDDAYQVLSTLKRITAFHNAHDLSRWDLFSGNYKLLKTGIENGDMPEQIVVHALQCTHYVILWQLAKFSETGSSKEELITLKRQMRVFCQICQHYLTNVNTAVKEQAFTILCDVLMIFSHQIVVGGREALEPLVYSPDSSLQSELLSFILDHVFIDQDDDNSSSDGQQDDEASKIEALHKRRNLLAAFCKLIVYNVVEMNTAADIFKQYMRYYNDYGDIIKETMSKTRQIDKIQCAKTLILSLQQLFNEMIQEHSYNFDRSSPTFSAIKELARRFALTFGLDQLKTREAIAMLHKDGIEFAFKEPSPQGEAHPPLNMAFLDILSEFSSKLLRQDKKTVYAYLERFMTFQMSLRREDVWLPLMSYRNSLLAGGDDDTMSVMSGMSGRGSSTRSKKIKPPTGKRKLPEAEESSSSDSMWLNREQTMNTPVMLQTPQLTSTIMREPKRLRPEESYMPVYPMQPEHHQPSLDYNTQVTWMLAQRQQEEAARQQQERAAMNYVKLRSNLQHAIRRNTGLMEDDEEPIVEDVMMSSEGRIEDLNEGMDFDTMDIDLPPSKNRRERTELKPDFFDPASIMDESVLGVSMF


Biological target: T1, XSA2
Experiment: co-IP

| percent depleted from the extract by anti-XSA2 [%] | Binder |
| --- | --- |
| ~5 | XSMC1 (natural protein) MGFLKLIEIENFKSYKGRQIIGPFHRFTAIIGPNGSGKSNLMDAISFVLGEKTSNLRVKTLRDLIHGAPVGKPAANRAFVSMVYSEDSGEEKVFSRVIVGGSSEYKINNKVVQLSEYSDSLEKLGILIKARNFLVFQGAVESIAMKNPKERTALFEEISRSGELAQEYDKRKKEMVKAEEDTQFNYHRKKNIAAERKEAKQEKEEAERYQRLKDEVARAQIQLQLFKLYHNESEIEKLNKELSVKNKGIEKDKKHMDKVEEELKDKKKELGKMMREQQAIEKEIKEKDAELNQKLPQYIKAKENPSHKIKKFRAAKKSLQNAQKQYKKRKADMDELEKEMLSVEKARQEFEERMEEESQSQGRDLTLEENQVKKYHRLKEEASKRAATLAQELEKFNRDQKADQDRLDLEERKKVETEAKIKQKLRELEENQKRIEKLEEYIATSKQSLEEQKNLEETLTEEVEMAKRRIDEINSELNQVMEQLGDARIDRQESSRQQRKAEIMESIKRLYPGSVYGRLIDLCQPTQKKYQIAVTKVLGKNMDAIIVDSEKTGRDCIQYIKEQRGEPETFLPLDYLEVKPTDERLRELKGAKLVIDVIRYEPPHIKKALQYACGNALVCDNVEDARRIAFGGHQRHKTVALDGTLFQKSGVISGGASDLKAKARRWDEKAVDKLKEKKERLTEELKEQMKAKRKEAELRQVQSQAHGLQMRLKYSQSDLEQTKTRHLAMNMQEKSKLESELANFSPRINDIKRIIQSRDREMKDLKEKMNQVEDEVFEEFCREIGVRNIREFEEEKVKRQNEIAKKRLEFENQKTRLGIQLDYEKNQLKEDQGKVQTWEQSVKKDDNEIEKLKKEEQRHMKIIDETMAQLQDLKNQHLAKKSEVNDKNHLMEDIRKKLGSANKEVTHLQKEVTAIETKLEQKRSDRHNLLQACKMSDIKLPLSKGTMDDISQEEGSSQGEESASSSQRSSTVYAKEALIEIDYSDLSEDLKDAVADDDIKQEMSALHQKINEQQSILQRISAPNMKAMEKLESVRDKFQETSDEFEAARKRAKKAKQAFEQTKKERFDRFNACFESVATNIDEIYKALSRNSSAQAFLGPENPEEPYLDGINYNCVAPGKRFRPMDNLSGGEKTVAALALLFAIHSYKPSPFFVLDEIDAALDNTNIGKVANYIKEQSMSNFQAIVISLKEEFYTKAESLIGVYPEQGDCVISKVLTFDLTKYPDANPNPND |
| ~5 | XSMC3 (natural protein) MYIKQVIIQGFRSYRDQTIVDPFSSKHNVIVGRNGSGKSNFFYAIQFVLSDEFSHLRPEQRLALLHEGTGPRVISAFVEIIFDNSDNRLPIDKEEVSLRRVIGAKKDQYFLDKKMVTKNDVMNLLESAGFSRSNPYYIVKQGKINQMATAPDSQRLKLLREVAGTRVYDERKEESISLMKETEGKRDKINELLKYIEERLHTLEEEKEELAQYQKWDKMRRALEYTIYNQELNETRAKLDELSSKRETSGEKSRQLRDAQQDARDKMEEIERQVRELKSKISAMKEEKEQLSSERQEQIKQRTKLELKTKDLQDELAGNSEQRKRLLKERQKLLEKIEEKQKELAETEPKFSSVKQKEESGIARLAQATQERTDLYAKQGRGSQFTSKEERDKWIKKELKSLDQAINDKKRQIAAINKDLEETEVNKEKNLEQYTKLDQDLNEVKTRVEELDKKYYEVKNKKDELQSERNYLWREENAEQQSLAAKREDLEKKQQLLRAATGKAILNGIDSINKVLEHFRRKGINQHVINGYHGIVMNNFDCEPAFYTCVEVTAGNRLFYHIVESDEVSTKILMEFNKMNLPGEVTFLPLNKLDVRDTAYPETNDAIPMISKLRYNLRFDKAFKHVFGKTLICRSMEVSTQLARAFTMDCITLEGDQVSHRGALTGGYYDTRKSRLELQKDVRKVEDELHALEAKLNENLRRNIERINNEIDQLMNQMQQIETQQRKFKASRDSILSEMKMLKEKRQQSEKTFMPKQRSLQSLEASLHAMESTRESLKAELGTDLLSQLSLEDQKRVDALNDEIRQLQQENRQLLNERIKLEGTITRVETYLNENLRKRLDQVEQELNELRETEGGTVLTATTSELEAINKRVKDTLARSEGLDITIDKTEVESKDLVKSMDRWKNMEKDHMDAINHDTKELEKMTNRQGMLLKKKEECMKKIRELGSLPQEAFEKYQTLSLKQLFRKLEQCNTELKKYSHVNKKALDQFVNFSEQKEKLIKRQEELDRGHKSIMELMNVLELRKYEAIQLTFKQVSKNFSEVFQKLVPGGKATLVMKKGDVEGSQSQDEGEGSTQSSVPSVDQFTGVGIRVSFTGKQAEMREMQQLSGGQKSLVALALIFAIQKCDPAPFYLFDEIDQALDAQHRKAVSDMIMELASHAQFITTTFRPELLESADKFYGVKFRNKVSHIDVITAEQAKDFVEDDTTHG |
